B1: Enh6 (dsDNA)
DNA 1: CGTCAAGGAAACCTTATTCCATC
DNA 2: GATGGAATAAGGTTTCCTTGACG
B2: Enh1 (dsDNA)
DNA 1: CTCTTGGGTAACTGGAGCCCCTC
DNA 2: GAGGGGCTCCAGTTACCCAAGAG
B3: Enh4 (dsDNA)
DNA 1: GGGGTAAGAAATCTGACGACAGG
DNA 2: CCTGTCGTCAGATTTCTTACCCC
B4: Enh2 (dsDNA)
DNA 1: TCATAAGGAAATCTAAGTCAACC
DNA 2: GGTTGACTTAGATTTCCTTATGA
B5: Enh3 (dsDNA)
DNA 1: TGTAAGAGAAACTGAAATAAAAT
DNA 2: ATTTTATTTCAGTTTCTCTTACA

The binders below were run against T1, Six1 (Mus musculus, UniProt Q62231 1-284) (assay: competition EMSA; 10x and 100x vs labeled Myogenin MEF3; EMSA as previously described (ref 38); buffer, salt, pH and temperature not given). Details: protein: ivt; blunt.
T1 sequence: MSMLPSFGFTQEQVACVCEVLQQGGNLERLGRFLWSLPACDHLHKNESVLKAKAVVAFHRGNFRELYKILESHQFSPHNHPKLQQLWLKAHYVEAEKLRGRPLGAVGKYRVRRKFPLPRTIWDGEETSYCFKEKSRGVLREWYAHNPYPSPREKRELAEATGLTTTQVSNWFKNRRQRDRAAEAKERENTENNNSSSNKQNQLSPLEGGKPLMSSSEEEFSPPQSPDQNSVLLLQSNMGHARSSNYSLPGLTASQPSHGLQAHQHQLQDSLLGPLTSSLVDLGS
B1: binds. B2: binds. B3: binds. B4: binds. B5: binds.

From PMC4031048, “Six Homeoproteins and a linc-RNA at the Fast MYH Locus Lock Fast Myofiber Terminal Phenotype”
